From patent US20030166537A1, “Use of GDNF for treating corneal defects” (Biopharm Gesellschaft Zur Biotechnologischen Entwicklung …, priority 1999, published 2003) come the findings set out here.

The subject of this test is primary rabbit corneal epithelial cells. In words: single cell clonal growth assay (colony formation, clonal proliferation). The format is cell-based. Particulars: D6. The source says: In order to evaluate the effect of GDNF on corneal proliferation, recombinant human GDNF was used (R&D, Minneapolis, Minn., USA). For the evaluation of the effect on corneal epithelial proliferaton a single cell clonal growth model was utilized which allows to determine the effect of the given growth factor on both colony formation as well as clonal expansion (Kruse et al., 1991). New Zealand white rabbits were housed and treated according to the ARVO Resolution of Animals in Research and under observation of German Federal Laws and the laws of the State of Baden-Württemberg. Prior to sacrifice with an intravenous overdose of pentobarbital, they received an intramuscular injection of xylazine hydrochloride and ketamine hydrochloride. The details of the clonal growth assay are described in Kruse et al. (1991). 5000 viable cells were seeded in each 16 mm dish in serum-free medium MCDB 151 with a supplement (S) of insulin (5 μg/ml), transferrin (5 μg/ml), selenium (5 ng/ml) and hydrocortisone (5 μg/ml) (all from Sigma, Deisenhofen, Germany). […] This quantification was facilitated by the use of dishes which contained a grit on the bottom which is roughly 2 mm wide (from Sarstedt, Newton, N.C., USA). For data collection the entire surface area of four randomly selected dishes for each condition was screened. Furthermore, the number of cells per colony was determined in 75 randomly selected colonies for each condition. Furthermore, the total number of cells/dish was calculated in order to carry out an evaluation for artemin. In order to stimulate the cellular proliferation, GDNF (50 or 200 ng/ml) or artemin (250 ng/ml) was added to the medium. In order to estimate the rate of proliferation after 12 days (a time when neighbouring colonies started to grow into each other and, therefore, prevented numerical quantification) dishes were fixed in −20° C. methanol and stained with methylene blue.
All experiments examining the effect of GDNF on corneal proliferation were performed in triplicate with cells from different donors. The influence of growth factor on colony formation, colony size and cell number was studied using one-way analysis of variance. […] Student's t-test was employed to determine which differences were significant after analysis of variance.

B1: GDNF: recombinant human GDNF having the amino acid sequence of human wild-type GDNF (GenBank L19063, L15306) (protein)
chain: SPDKQMAVLPRRERNRQAAAANPENSRGKGRRGQRGKNRGCVLTAIHLNVTDLGLGYETKEELIFRYCSGSCDAAETTYDKILKNLSRNRRLVSDKVGQACCRPIAFDDDLSFLDDNLVYHILRKHSAKRCGCI
B1: for the setting “GDNF 50 ng (p<0,05) and 200 ng (p<0.0001), serum-free MCDB”, the “numbers of colonies per dish” value is “increased significantly”. Also, under “GDNF 50 and 200 ng/ml, p<0.01”, the “clonal proliferation (number of cells within each colony)” value is “significantly stimulated”.
